Results as given in article PMC3372094.

Target: calmodulin-binding domain of the original SK2 channel, SK2-a (UniProt P70604)
Assay: ITC

UniProt P70604, sequence (P70604 396-487): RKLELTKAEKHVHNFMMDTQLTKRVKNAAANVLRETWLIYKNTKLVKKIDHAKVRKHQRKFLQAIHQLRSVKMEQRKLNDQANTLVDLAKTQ

dH of the first site (rising phase, two-site fit): -34.7 kcal/mol
Substance: calmodulin (rat) (from UniProt P0DP29 1-149) (natural protein; other documents disagree on this pair)
